Test results taken from patent publication US20230287143A1.

Tests used:
human 4-1BB (human) [1] = molecular target: human 4-1BB (human) (UniProt Q07011); test: FACS; panel C
human 4-1BB (human) [2] = molecular target: human 4-1BB (human) (UniProt Q07011); test: FACS; panel A
CHO-K1/hu OX40 (human) = CHO-K1/hu OX40 (human) (UniProt P43489); test: FACS
Chain of CHO-K1/hu OX40 (human) (P43489 29-277): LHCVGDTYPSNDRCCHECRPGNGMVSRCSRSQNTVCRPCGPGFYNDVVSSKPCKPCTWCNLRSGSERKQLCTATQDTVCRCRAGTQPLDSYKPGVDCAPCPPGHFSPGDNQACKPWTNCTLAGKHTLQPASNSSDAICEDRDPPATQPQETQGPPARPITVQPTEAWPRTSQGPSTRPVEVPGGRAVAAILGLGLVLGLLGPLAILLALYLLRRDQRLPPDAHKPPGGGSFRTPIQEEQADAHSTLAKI

Chain of human 4-1BB (human) (Q07011 24-255): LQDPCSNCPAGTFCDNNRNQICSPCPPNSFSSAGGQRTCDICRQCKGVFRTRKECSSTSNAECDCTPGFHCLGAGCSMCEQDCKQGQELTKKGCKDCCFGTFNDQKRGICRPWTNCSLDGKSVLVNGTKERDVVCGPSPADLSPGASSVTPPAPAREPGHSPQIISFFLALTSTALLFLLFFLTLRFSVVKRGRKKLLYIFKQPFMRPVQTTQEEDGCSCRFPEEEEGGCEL

EC50 (human 4-1BB (human) [1]) [nM]	EC50 (human 4-1BB (human) [2]) [nM]	EC50 (CHO-K1/hu OX40 (human)) [nM]	Substance
1.01	0.347		Anti-4-1BB monoclonal antibody Urelumab analog (hIgG4)
		1.15	Pogalizumab
